Experimental data reported in patent US20180057551A1 (AMYLONIX, published 2018).

Biological target: T1, anti-ABD goat antibody (produced in-house)
T1 construct: also called Anti-ABD surface
Experiment: SPR Biacore 2000, periplasmic sample over immobilised anti-ABD goat antibody
Experimental: A selection of Aβ peptide binding polypeptides was subjected to an analysis of the response against biotinylated hAβ₁₋₄₀ using a Biacore 2000 instrument (GE Healthcare). Biotinylated anti-ABD goat antibody (produced in-house) and N-terminally biotinylated hAβ₁₋₄₀ (AnaSpec cat. no. AS-24648) were immobilized in separate flow cells on a streptavidin coated chip (Biacore Sensor Chip SA, cat. no. BR100032) using HBS-EP as running buffer (0.01 M HEPES pH 7.4, 0.15 M NaCl, 3 mM EDTA, 0.005% v/v Surfactant P20, GE Healthcare, cat. no. BR100188). The ligand immobilization levels on the surfaces were approximately 2000 RU for the anti-ABD antibody and 225 RU for hAβ₁₋₄₀. One flow cell surface on the chip was used as blank during analyte injections. HBS-EP was used as running buffer and the flow rate was 25 μl/min. The analytes, i.e. periplasmic preparations of Aβ peptide binding polypeptides as described above, were each diluted 15× in HBS-EP buffer and injected for 10 min, followed by dissociation in running buffer for 5 min. After dissociation, the surfaces were regenerated with 2 pulses of 10 mM glycin pH 2.0. […]
The interactions of a subset of Z variants with anti-ABD goat antibody and hAβ₁₋₄₀ were analyzed in a Biacore instrument by injecting dilutions of periplasmic samples.

B1: albumin binding domain GA3 from streptococcal Protein G (ABD), periplasmic control (other)
chain: LAEAKVLANRELDKYGVSDYYKNLINNAKTVEGVKALIDEILAALP
notes: periplasm containing ABD only; also called negative control; blank control
With B1 the “Response RU” value was 19.8 RU.
